In patent publication US20100331250A1 one finds EC50, growth activity of VEGF on HUVEC (CCK-8, endothelial cell growth assay) and inhibitory activity against VEGF (HUVEC growth assay) data, which are given here for one substance.

In assay [1] the target is human VEGF165 (human) (UniProt P15692). Briefly: quantitative ELISA; serial concentrations of fusion protein mixed with 40 pM human VEGF165, detection with anti-human IgG Fc-HRP. On the technique in general: In an ELISA, binding on a coated surface is turned into a signal by an enzyme label.
Assay [2] shares this target. Briefly: cell-based or functional assay.

For orientation: EC50 means the concentration giving half of the maximal effect. A lower EC50 goes with greater potency.

UniProt P15692, sequence (P15692 other isoform, or with tags, fused parts or gaps limits assumed): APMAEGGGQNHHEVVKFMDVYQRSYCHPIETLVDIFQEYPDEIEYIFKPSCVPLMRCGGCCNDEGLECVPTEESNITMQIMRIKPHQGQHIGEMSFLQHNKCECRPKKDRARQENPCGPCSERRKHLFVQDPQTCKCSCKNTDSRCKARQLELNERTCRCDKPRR

Turning to VEGF-Trap (Fc fusion), the EC50 in the assay with human VEGF165 (human) [1] came to 0.136 µg/mL. Also, in the assay with human VEGF165 (human) [2], the growth activity of VEGF on HUVEC (CCK-8, endothelial cell growth assay) amounted to 28 pM and the inhibitory activity against VEGF (HUVEC growth assay) was 14 pM.
